Patent publication US20230303994
Numbering of substitutions follows the chain as printed.

B1: trypsin variant SEQ ID NO: 101 (protein)
chain: IVGGYTCAANSIPYQVSLNSGSHRCGGSLINSQWVVSAAHCYKSRIQVRLGEHNIHVLEGNEQFINAAKIITHPNFNPNTLDNDIMLIKLSSPATLNSNVATVSLPTSCAAAGTECLISGWGNTSSSGSSMPSLLQCLKAPVLSDSSCKSSYPGQITGNMICVGFLEGGADACQGDSGGPVVCNGQLQGIVSSGYGCAQKNKPGVYTKVCNYVNWIQQTIAAN
B2: trypsin variant SEQ ID NO: 104 (protein)
chain: B1 chain with S125C
B3: trypsin variant SEQ ID NO: 102 (protein)
chain: B1 chain with S44P, N99H
B4: trypsin variant SEQ ID NO: 109 (protein)
chain: B1 chain with P78G, S125C
B5: trypsin variant SEQ ID NO: 103 (protein)
chain: B1 chain with S44P, N99H, A172S
B6: porcine trypsin variant no. 105 (SEQ ID NO: 105) (protein)
chain: B1 chain with S125A, M131Y
B7: trypsin variant SEQ ID NO: 107 (protein)
chain: B1 chain with S44P, N99H, S125C
B8: trypsin variant SEQ ID NO: 110 (protein)
chain: B1 chain with N99H, T107R, S125C
B9: trypsin variant SEQ ID NO: 106 (protein)
chain: B1 chain with N99A, S125C
B10: trypsin variant SEQ ID NO: 111 (protein)
chain: B1 chain with S44P, N99H, M131Y
B11: trypsin variant SEQ ID NO: 108 (protein)
chain: B1 chain with S44P, H56D, N99A, S125C
B12: trypsin variant SEQ ID NO: 113 (protein)
chain: B1 chain with S44P, P78G, N99A, S125A, M131Y

| Protein | Purity Insulin Glargine (pre-pro-insulin glargine) [area %] | Yield (pre-pro-insulin glargine) [%] | desArg (pre-pro-insulin glargine) [area %] | desThr (pre-pro-insulin glargine) [area %] | Activity PPI cleavage (pre-pro-human insulin) | Selectivity (pre-pro-human insulin) [%] |
| --- | --- | --- | --- | --- | --- | --- |
| B1 | 89.2 | > 90 | 1 | 0.4 | yes | >90 |
| B2 | 89.3 | > 90 | 1.1 | 1 | yes | >90 |
| B3 | 88.7 | > 90 | 0.4 | 1.2 | yes | >90 |
| B4 | 85.9 | > 80 | 0.7 | 0.5 | yes | >90 |
| B5 | 90.7 | > 90 | 0.9 | 1.4 | yes | >90 |
| B6 | 88.9 | > 90 | 1 | 0.9 | yes | >90 |
| B7 | 88.1 | > 90 | 0.4 | 1.3 | yes | >90 |
| B8 | 90.6 | > 90 | 0.9 | 0.6 | yes | >90 |
| B9 | 86.8 | > 90 | 0.7 | 1 | yes | >90 |
| B10 | 85.9 | > 90 | 0.7 | 2.6 | yes | >80 |
| B11 | 88.8 | > 90 | 0.8 | 0.7 | yes | >80 |
| B12 | 86.1 | > 90 | 0.5 | 1.7 | yes | >90 |
